From PMC2912450 come the findings set out here.

The target in the experiment is His-tagged FliK (Salmonella) (UniProt P26416). The experiment in a line: SPR.

For the substance FlhBc(N269A) (domain or fragment), the dissociation constant (Kd) (commonly the constant that tells how readily two partners part at equilibrium) amounted to 10.5 µM.

For the substance FlhBc(P270A) (domain or fragment), the Kd was determined as 1.6 µM.
